This is an account of results in US20100330106A1 (Regeneron, published 2010).

The target in this test is human DII4 (delta-like ligand 4) (human, UniProt Q9NR61 27-524, limits assumed). Put plainly: cell-based or functional assay.
Chain of human DII4 (delta-like ligand 4) (Q9NR61 27-524 limits assumed, stated change not applied): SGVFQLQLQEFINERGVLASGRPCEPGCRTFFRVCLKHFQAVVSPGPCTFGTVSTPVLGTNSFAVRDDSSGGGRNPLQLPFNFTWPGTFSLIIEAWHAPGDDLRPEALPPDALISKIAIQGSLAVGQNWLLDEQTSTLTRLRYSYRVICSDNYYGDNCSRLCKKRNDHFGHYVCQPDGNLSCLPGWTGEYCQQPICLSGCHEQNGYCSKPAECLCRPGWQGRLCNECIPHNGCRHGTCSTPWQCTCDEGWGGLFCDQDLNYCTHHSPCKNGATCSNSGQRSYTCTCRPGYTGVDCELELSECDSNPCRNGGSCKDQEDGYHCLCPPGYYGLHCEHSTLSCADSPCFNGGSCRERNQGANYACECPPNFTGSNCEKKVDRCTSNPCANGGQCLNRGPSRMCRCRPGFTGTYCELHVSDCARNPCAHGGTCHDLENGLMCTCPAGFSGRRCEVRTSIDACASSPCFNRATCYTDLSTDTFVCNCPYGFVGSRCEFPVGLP

B1: REGN421 (antibody, V domains shown)
VH: QVQLVESGGGVVQPGRSLRLSCAASGFTFSSYGMHWVRQAPGKGLEWVSFLWYDGTNKNYVESVKGRFTISRDNSKNMLYLEMNSLRAEDTAVYYCARDHDFRSGYEGWFDPWGQGTLVTVSS
VL: EIVLTQSPATLSLSPGERATLSCRASQSVSSYLAWYQQKPGQAPRLLIYDASNRATGIPARFSGSGSGTDFTLTISSLEPEDFAVYYCQHRSNWPPTFGGGTKVEIK
On to B1, for which the “Hey-1 transcript, Post-treatment vs. Pre-treatment ratio (microarray, patient 1, dose 0.25 mg/kg, 24 hours after REGN421 administration)” value stood at 0.52 ratio; the “Hey-1 transcript, Post-treatment vs. Pre-treatment ratio (microarray, patient 2, dose 0.25 mg/kg, 24 hours after REGN421 administration)” value was found to be 0.85 ratio; the “Hey-1 transcript, Post-treatment vs. Pre-treatment ratio (microarray, patient 3, dose 0.25 mg/kg, 24 hours after REGN421 administration)” value was 0.77 ratio; the “Hey-1 transcript, Post-treatment vs. Pre-treatment ratio (microarray, patient 4, dose 0.25 mg/kg, 24 hours after REGN421 administration)” value is 0.51 ratio. In addition, the “Hey-1 transcript, Post-treatment vs. Pre-treatment ratio (microarray, patient 5, dose 0.25 mg/kg, 24 hours after REGN421 administration)” value was 0.61 ratio; the “Hey-1 transcript, Post-treatment vs. Pre-treatment ratio (microarray, patient 6, dose 0.25 mg/kg, 24 hours after REGN421 administration)” value came to 0.55 ratio; the “Hey-1 transcript, Post-treatment vs. Pre-treatment ratio (microarray, patient 7, dose 0.25 mg/kg, 24 hours after REGN421 administration)” value was found to be 0.75 ratio; the “Hey-1 transcript, Post-treatment vs. Pre-treatment ratio (microarray, patient 8, dose 0.5 mg/kg, 24 hours after REGN421 administration)” value came to 0.68 ratio. Moreover, the “Hey-1 transcript, Post-treatment vs. Pre-treatment ratio (microarray, patient 9, dose 0.5 mg/kg, 24 hours after REGN421 administration)” value worked out at 0.82 ratio.
